B4: BMP-6 (ligand, UniProt P22004 382-513, looked up)
chain: QQSRNRSTQSQDVARVSSASDYNSSELKTACRKHELYVSFQDLGWQDWIIAPKGYAANYCDGECSFPLNAHMNATNHAIVQTLVHLMNPEYVPKPCCAPTKLNAISVLYFDDNSNVILKKYRNMVVRACGCH

In assay [1] the target is B4. Description: ELISA-based competition: sclerostin coated, BMP-6, DAN titrated; competitor sclerostin. Background: In an ELISA, binding on a coated surface is turned into a signal by an enzyme label.
In assay [2] the target is B4. Description: ELISA-based competition: sclerostin coated, BMP-6 11 nM; competitor sclerostin.
Assay [3] addresses B4. Description: ELISA-based competition: sclerostin coated (300 ng/well), BMP-6 11 nM, receptor-FC titrated; competitor sclerostin.
Assay [4] deals with T1, FLAG epitope-tagged Beer (human Beer, secretion signal removed, C-terminal FLAG tag, from … (human, UniProt Q9BQB4 24-213)).
T1 construct: also called FLAG-Beer; H. Beer
T1 sequence: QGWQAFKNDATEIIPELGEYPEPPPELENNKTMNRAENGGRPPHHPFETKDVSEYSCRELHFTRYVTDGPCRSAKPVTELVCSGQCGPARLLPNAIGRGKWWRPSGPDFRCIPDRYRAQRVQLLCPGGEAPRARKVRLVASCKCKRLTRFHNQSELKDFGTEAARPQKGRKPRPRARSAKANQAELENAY
Description: Beer ligand binding assay (FLAG-Beer captured on an anti-FLAG plate, BMP-5 titrated, ELISA detection), FIG. 6. On the procedure: FLAG-Beer protein (20 ng) is added to 100 ul PBS/0.2% BSA and adsorbed into each well of 96 well microtiter plate previously coated with anti-FLAG monoclonal antibody (Sigma; St Louis Mo.) and blocked with 10% BSA in PBS. This is conducted at room temperature for 60 minutes. This protein solution is removed and the wells are washed to remove unbound protein. BMP-5 is added to each well in concentrations ranging from […] to 500 nM in PBS/0.2% BSA and incubated for 2 hours at room temperature. The binding solution is removed and the plate washed with three times with 200 ul volumes of PBS/0.2% BSA. BMP-5 levels are then detected using BMP-5 anti-serum via ELISA (F. M. Ausubel et al (1998) Current Protocols in Mol. Biol. Vol 2 11.2.1-11.2.22). Specific binding is calculated by subtracting non-specific binding from total binding and analyzed by the LIGAND program (Munson and Podbard, Anal. Biochem., 107, p 220-239, (1980).

Assay [5] addresses B4. Description: ELISA-based competition: sclerostin coated, BMP-6, receptor-FC titrated; competitor sclerostin. Here is the method: (§1) A 10-fold molar excess of the BMP receptor was sufficient to reduce binding of sclerostin to BMP-6 by approximately 50%. This competition was also observed with a BMP receptor II-FC fusion protein (IC₅₀=36 nM) and DAN (IC₅₀=43 nM).
In assay [6] the target is T1, FLAG epitope-tagged Beer (human Beer, …). Description: anti-FLAG immunoprecipitation of FLAG-tagged Beer incubated with BMP-4, anti-BMP-4 western blot; Cerberus with BMP-4 as positive control on the left part. Here is the method: The interaction of Beer with proteins from different phylogenetic arms of the TGF-β superfamily were studied using immunoprecipitation methods. Purified TGFβ-1, TGFβ-2, TGFβ-3, BMP-4, BMP-5, BMP-6 and GDNF were obtained from commerical sources (R&D systems; Minneapolis, Minn.). A representative protocol is as follows. Partially purified Beer was dialyzed into HEPES buffered saline (25 mM HEPES 7.5, 150 mM NaCl). Immunoprecipitations were done in 300 ul of IP buffer (150 mM NaCl, 25 mM Tris pH 7.5, 1 mM EDTA, 1.4 mM β-mercaptoethanol, 0.5% triton×100, and 10% glycerol). […] The proteins were resolved by SDS PAGE and Beer associated BMP-5 was detected by western blot using anti-BMP-5 antiserum (Research Diagnostics, Inc) (see FIG. 5).
In general terms: In western blotting, separated proteins are transferred to a membrane and probed.

The target in assay [7] is T2, sclerostin (coated on the ELISA surface, Example 12) (Homo sapiens (Human), UniProt Q9BQB4 24-213).
T2 construct: also called SOST; Beer
T2 sequence: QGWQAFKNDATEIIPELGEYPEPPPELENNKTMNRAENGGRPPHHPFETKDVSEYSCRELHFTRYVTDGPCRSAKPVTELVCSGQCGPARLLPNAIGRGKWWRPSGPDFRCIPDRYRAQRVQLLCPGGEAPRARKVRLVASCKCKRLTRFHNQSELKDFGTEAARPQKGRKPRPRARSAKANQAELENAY
Description: ELISA, sclerostin-coated surface (300 ng/well), BMP-6 in solution. On the procedure: as §1

A word on the IC50: it is the concentration that gives 50% inhibition. The low end stands for greater potency, the high end for weaker potency. Molecule DAN (competitor in Example 12) returned an IC50 in the assay with BMP-6 [1] of 43 nM.

For BMP receptor IA (FC fusion construct), the reduction of binding of sclerostin to BMP-6 at a 10-fold molar excess of receptor with BMP-6 [2] is 50%. Further, in the assay with BMP-6 [3], the IC50 was found to be 114 nM.

B1: recombinant human BMP-5 protein (R&D systems) (ligand, UniProt P22003 317-454, looked up)
chain: AANKRKNQNRNKSSSHQDSSRMSSVGDYNTSEQKQACKKHELYVSFRDLGWQDWIIAPEGYAAFYCDGECSFPLNAHMNATNHAIVQTLVHLMFPDHVPKPCCAPTKLNAISVLYFDDSSNVILKKYRNMVVRSCGCH
notes: Commercial protein
What is called Kd is the constant that tells how readily two partners part at equilibrium. Low values mean higher affinity, high ones lower affinity. In assay [4], B1 showed a Kd of 15 to 30 nM.

B2: BMP receptor II-FC fusion protein (Fc fusion)
chain: SQNQERLCAFKDPYQQDLGIGESRISHENGTILCSKGSTCYGLWEKSKGDINLVKQGCWSHIGDPQECHYEECVVTTTPPSIQNGTYRFCCCSTDLCNVNFTENFPPPDTTPLSPPHSFNRDET
notes: also called BMPR-II; type II receptor; not shown: Fc part and any linker
B2: the IC50 with BMP-6 [5] came to 36 nM.

B3: BMP-4 (ligand, UniProt P12644 293-408, looked up)
chain: SPKHHSQRARKKNKNCRRHSLYVDFSDVGWNDWIVAPPGYQAFYCHGDCPFPLADHLNSTNHAIVQTLVNSVNSSIPKACCVPTELSAISMLYLDEYDKVVLKNYQEMVVEGCGCR
Consider B3, for which the binding result in assay [6] was “no binding”. B4 displayed a Kd in assay [7] of 3.4 nM. That is a single-digit nanomolar value.
